This is an account of results in US11879149B2, “Quantification method of ethanolamine phosphate, oxidoreductase for quantification, composition for quantification, kit for quantification and sensor for quantification” (KIKKOMAN CORPORATION, priority 2018, dated 2024).

A short description of data set [1]: Dehydrogenase activity measurement of AgPEAOX (1-MPES/WST-1, A438). It counts as biochemical. Conditions: pH 8.5; final concentration of 50 mM EAP; 37° C. The procedure: After incubation of 609 μl of the reagent consisting of the composition of Table 3 for 5 minutes at 37° C., 21 μl of the substrate solution (1500 mM EAP) was added and mixed, and the amount of change at A438 (ΔAS) per 1 minute at 37° C. was measured using the spectrophotometer (U-3900, manufactured by Hitachi High-Tech Science Corporation).
Next, 21 μl of ion-exchanged water was added instead of the substrate solution and mixed, and the amount of change at A438 (ΔA0) per 1 minute at 37° C. was measured. 1-methoxy-5-ethylphenazinium ethyl sulfate (1-MPES), and 2-(4-iodophenyl)-3-(4-nitrophenyl)-5-(2,4-disulfophenyl)-2H-tetrazolium monosodium salt (WST-1) manufactured by DOJINDO LABORATORIES were used.
Dehydrogenase activity was calculated based on the following formula: Dehydrogenase activity (U/ml)=(ΔAS−ΔA0)×630×df/(37.0×x)=17.0×(ΔAS−ΔA0)×df/x • 37.0: Millimolar extinction coefficient (mM^−1 cm^−1) of WST-1 formazan dye for 438 nm-Wavelength Light • df: Dilution rate of enzyme solution (Quantification of EAP by AgPEAOX)

Data set [2] can be described thus: Oxidase activity measurement and pH dependence of AgPEAOX (4-AA/TOOS/POD, A555). It counts as biochemical. The procedure:
Oxidase activity was measured for the expressed, purified AgPEAOX by the methods described above. After incubating 609 μl of a reagent consisting of the composition of Table 5 at 37° C. for 5 minutes, 21 μl of a substrate solution (1500 mM EAP) was added and mixed, and the amount of change at A555 (ΔAS) per 1 minute at 37° C. was measured using the spectrophotometer (U-3900, manufactured by Hitachi High-Tech Science Corporation).
Next, 21 μl of ion-exchanged water was added instead of the substrate solution and mixed, and the amount of change at A555 (ΔA0) per 1 minute at 37° C. was measured. […]
The oxidase activity was calculated based on the following formula: Oxidase activity (U/ml)=(ΔAS−ΔA0)×630×df/(39.2×0.5×x)=32.1×(ΔAS−ΔA0)×df/x • 39.2: Millimolar extinction coefficient (mM^−1cm^−1) of 4-AA-TOOS Condensation dye for 555 nm-wavelength light • df: Dilution rate of enzyme solution (pH-Dependence Measurement of Catalytic Reaction of AgPEAOX)
When the pH dependence of catalytic reaction of AgPEAOX was measured, the activity was measured by replacing Bicine-NaOH buffer solution pH 8.5 contained in the reagent for activity measurement in Table 5 with a potassium phosphate buffer solution, MOPS-NaOH buffer solution, or Bicine-NaOH adjusted to a predetermined pH.

“AgPEAOX: phenylethylamine oxidase derived from Arthrobacter globiformis, UniProt ID P46881, SEQ ID NO: 9”: the “dehydrogenase activity of purified AgPEAOX solution” value in data set [1] is given as 0.069 U/ml (*purified AgPEAOX solution). The “oxidase activity of purified AgPEAOX solution” value in data set [2] (pH 8.5, final concentration of 50 mM EAP, 37° C.) was 2.29 U/ml (*purified AgPEAOX solution). Moreover, the “optimum pH for the catalytic reaction (oxidase activity)” value in data set [2] (potassium phosphate, MOPS-NaOH or Bicine-NaOH buffers, FIG. 3) is recorded as 8.5.
